B1: Nlgn2 extracellular domain with His6 tag in the C-terminus (domain or fragment, mouse, UniProt Q69ZK9 15-678, looked up)
chain: QRGGGGPGGGAPGGPGLGLGSLGEERFPVVNTAYGRVRGVRRELNNEILGPVVQFLGVPYATPPLGARRFQPPEAPASWPGVRNATTLPPACPQNLHGALPAIMLPVWFTDNLEAAATYVQNQSEDCLYLNLYVPTEDGPLTKKRDEATLNPPDTDIRDSGKKPVMLFLHGGSYMEGTGNMFDGSVLAAYGNVIVVTLNYRLGVLGFLSTGDQAAKGNYGLLDQIQALRWLSENIAHFGGDPERITIFGSGAGASCVNLLILSHHSEGLFQKAIAQSGTAISSWSVNYQPLKYTRLLAAKVGCDREDSTEAVECLRRKSSRELVDQDVQPARYHIAFGPVVDGDVVPDDPEILMQQGEFLNYDMLIGVNQGEGLKFVEDSAESEDGVSASAFDFTVSNFVDNLYGYPEGKDVLRETIKFMYTDWADRDNGEMRRKTLLALFTDHQWVAPAVATAKLHADYQSPVYFYTFYHHCQAEGRPEWADAAHGDELPYVFGVPMVGATDLFPCNFSKNDVMLSAVVMTYWTNFAKTGDPNQPVPQDTKFIHTKPNRFEEVVWSKFNSKEKQYLHIGLKPRVRDNYRANKVAFWLELVPHLHNLHTELFTTTTRLPPYATRWPPRTPGPGTSGTRRPPPPATLPPESDIDLGPRAYDRFPGDSRDYSTELS
notes: Neuroligin 2 (Nlgn2), mouse, extracellular domain, residues 15-678; Construct used to immunise the alpaca; main SEC peak was a dimer; also called recombinant Nlgn2 extracellular domain; mouse Nlgn2 (15-678); source: Expi293F cells, supernatant, purified (Ni-NTA, SEC); not shown: His6, C-terminal, kept
B2: Biotinylated recombinant Nlgn2 extracellular domain with Avitag (domain or fragment, mouse, UniProt Q69ZK9 15-678, looked up)
chain: QRGGGGPGGGAPGGPGLGLGSLGEERFPVVNTAYGRVRGVRRELNNEILGPVVQFLGVPYATPPLGARRFQPPEAPASWPGVRNATTLPPACPQNLHGALPAIMLPVWFTDNLEAAATYVQNQSEDCLYLNLYVPTEDGPLTKKRDEATLNPPDTDIRDSGKKPVMLFLHGGSYMEGTGNMFDGSVLAAYGNVIVVTLNYRLGVLGFLSTGDQAAKGNYGLLDQIQALRWLSENIAHFGGDPERITIFGSGAGASCVNLLILSHHSEGLFQKAIAQSGTAISSWSVNYQPLKYTRLLAAKVGCDREDSTEAVECLRRKSSRELVDQDVQPARYHIAFGPVVDGDVVPDDPEILMQQGEFLNYDMLIGVNQGEGLKFVEDSAESEDGVSASAFDFTVSNFVDNLYGYPEGKDVLRETIKFMYTDWADRDNGEMRRKTLLALFTDHQWVAPAVATAKLHADYQSPVYFYTFYHHCQAEGRPEWADAAHGDELPYVFGVPMVGATDLFPCNFSKNDVMLSAVVMTYWTNFAKTGDPNQPVPQDTKFIHTKPNRFEEVVWSKFNSKEKQYLHIGLKPRVRDNYRANKVAFWLELVPHLHNLHTELFTTTTRLPPYATRWPPRTPGPGTSGTRRPPPPATLPPESDIDLGPRAYDRFPGDSRDYSTELS
modifications: biotin on the Avitag (biotinylated with BirA)
notes: Neuroligin 2 (Nlgn2), extracellular domain; residues 15-678 of mouse Nlgn2 are stated only for the His6 construct used for immunisation, not for this Avitag construct; probably the same; Eluted as a dimeric peak in SEC; also called Nlgn2 with Avitag; Biotinylated Nlgn2; source: purified by SEC, biotinylated with BirA; not shown: Avitag, C-terminal, kept

Columns and labels:
[1] = target: the molecule itself; assay: SEC; Hiload 16/600 Superdex 200 pg in PBS; Nlgn2 extracellular domain with His6
[2] = target: the molecule itself; assay: SEC; Nlgn2 with Avitag; 10 mM HEPES-NaOH pH 7.4, 150 mM NaCl, 3 mM CaCl2

Row | Protein | stoichiometry N [1] | stoichiometry N [2]
1 | B1 | 2 | –
2 | B2 | – | 2
